# Laboratory results reported in article PMC5440694 (Nature Communications, 2017).
# Numbering of substitutions follows the chain as printed.
# B1: C05 Fab variant VVSSGW, expressed in insect cells (Fab, V domains shown)
# VH: QVQLQESGGGLVQPGESLRLSCVGSGSSFGESTLSYYAVSWVRQAPGKGLEWLSIINAGGGDIDYADSVEGRFTISRDNSKETLYLQMTNLRVEDTGVYYCAKHMSMQQVVSSGWERADLVGDAFDVWGQGTMVTVSS
# VL: DIQLTQSPSSLSASVGDRVTLTCQASQDIRKFLNWYQQKPGKGPKLLIYDASNLQRGVPSRFSGGGSGTDFTLIISSLQPEDVGTYYCQQYDGLPFTFGGGTKVVIK
# B2: C05 Fab variant VTGSGW, expressed in insect cells (Fab, V domains shown)
# VH: B1 VH with V111T, S112G
# VL: B1 VL
# Legend:
# Assay in all cases: BLI
# Settings in all cases: both partners purified
# [1] = biological target: biotinylated HA0 ectodomain of A/Panama/2007/1999 (H3N2) (Influenza A virus A/Panama/2007/1999 …, UniProt Q1K9M3, strain, biotin on the BirA biotinylation site)
# [2] = biological target: biotinylated HA0 ectodomain of A/New Caledonia/20/1999 (H1N1) (Influenza A virus A/New …, UniProt Q6WG00, strain, biotin on the BirA biotinylation site)
# [3] = biological target: biotinylated HA0 ectodomain of A/Beijing/262/1995 (H1N1) (Influenza A virus A/Beijing/262/1995 …, UniProt Q6WG01, strain, biotin on the BirA biotinylation site)
# [4] = biological target: biotinylated HA0 ectodomain of A/Solomon Islands/3/2006 (H1N1) (Influenza A virus A/Solomon …, UniProt A7Y8I1, strain, biotin on the BirA biotinylation site)
# [5] = biological target: biotinylated HA0 ectodomain of A/Perth/16/2009 (H3N2) (Influenza A virus A/Perth/16/2009 (H3N2), UniProt C6KNH7, strain, biotin on the BirA biotinylation site)
Binder,Kd [1],Kd [2],Kd [3],Kd [4],Kd [5]
B1,1290 ± 71 nM,2.9 ± 0.1 nM,259 ± 2.8 nM,4.6 ± 0.6 nM,43.7 ± 0.5 nM
B2,4340 ± 207 nM,1.1 ± 0.2 nM,182.3 ± 0.5 nM,116 ± 1.9 nM,125.1 ± 1.2 nM
